Measured values reported in IntAct's records for PubMed 19287395.

B1: Serine/threonine-protein phosphatase 1 regulatory subunit 10 (Mus musculus), Q80W00 (parent)
chain: MGSGPIDPKELLKGLDSFLTRDGEVKSVDGISKIFSLMKEARKMVSRCTYLNIILQTRAPEVLVKFIDVGGYKLLNNWLTYSKTTNNIPLLQQILLTLQHLPLTVDHLKQNNTAKLVKQLSKSSEDEELRKLASVLVSDWMAVIRSQSSTQPAEKDKKKRKEEGKSRTTLPERPLTEVKAETRAEEAPEKKKEKPKSLRTTAPSHAKFRSTGLELDTPSLVPVKKNSSTVVVSDKYNLKPIPLKRQSATAAPGDAAPPAEKKYKPLNTAPNTTKEIKVKIIPPQPMEGLGFLDALNSAPVPGIKIKKKKKVLSPTAAKPSPFEGKTSTEQSTAKPSSPEPAPPAEPMDTDRPGTPVPPVEVPELMDAASSEPGALDAKPVDSPGDPNQLTRKGRKRKTVTWPEEGKLREYFYFELDETERVNVNKIKDFGEAAKREILSDRHAFETARRLSHDNMEEKVPWVCPRPLVLPSPLVIPGSNSQERYIQAEREKGILQELFLNKESPHEPDPEPYEPIPPKLIPLDEECAMDETPYVETLEPGGSGGSPDGAGGSKLPPVLANLMGSMGAGKSPQGPGGGGINVQEILTSIMGSPNSHPSEELLKQPDYSDKLKQMLVPHGLLGPGPVANGFPPGGPGGPKGMQHFPPGPGGPMPGPHGGPGGPVGPRLLGPPPPSRGGDPFWDGPGDPMRGGPMRGGPGPAPGPYHRGRGGRGGNEPPPPPPFRGARGGRSGGGPPNGRGGPGGGGMVGGGGHRPHEGPGGSMGSGHRSHDGPGGNMGSGHRSHDGPGGNMGGSGGHRSHEGPGHGGPHGHRPHDVPSHRGHDHRGPPPHEHRGHDGHGGGGHRGHDGGHSHGGDMSNRPVCRHFMMKGNCRYENNCAFYHPGVNGPPLP
B2: TERF1-interacting nuclear factor 2 (Homo sapiens), Q9BSI4 (parent)
chain: MATPLVAGPAALRFAAAASWQVVRGRCVEHFPRVLEFLRSLRAVAPGLVRYRHHERLCMGLKAKVVVELILQGRPWAQVLKALNHHFPESGPIVRDPKATKQDLRKILEAQETFYQQVKQLSEAPVDLASKLQELEQEYGEPFLAAMEKLLFEYLCQLEKALPTPQAQQLQDVLSWMQPGVSITSSLAWRQYGVDMGWLLPECSVTDSVNLAEPMEQNPPQQQRLALHNPLPKAKPGTHLPQGPSSRTHPEPLAGRHFNLAPLGRRRVQSQWASTRGGHKERPTVMLFPFRNLGSPTQVISKPESKEEHAIYTADLAMGTRAASTGKSKSPCQTLGGRALKENPVDLPATEQKENCLDCYMDPLRLSLLPPRARKPVCPPSLCSSVITIGDLVLDSDEEENGQGEGKESLENYQKTKFDTLIPTLCEYLPPSGHGAIPVSSCDCRDSSRPL
B3: Microcephalin (Homo sapiens), Q8NEM0 (parent)
chain: MAAPILKDVVAYVEVWSSNGTENYSKTFTTQLVDMGAKVSKTFNKQVTHVIFKDGYQSTWDKAQKRGVKLVSVLWVEKCRTAGAHIDESLFPAANMNEHLSSLIKKKRKCMQPKDFNFKTPENDKRFQKKFEKMAKELQRQKTNLDDDVPILLFESNGSLIYTPTIEINSRHHSAMEKRLQEMKEKRENLSPTSSQMIQQSHDNPSNSLCEAPLNISRDTLCSDEYFAGGLHSSFDDLCGNSGCGNQERKLEGSINDIKSDVCISSLVLKANNIHSSPSFTHLDKSSPQKFLSNLSKEEINLQRNIAGKVVTPDQKQAAGMSQETFEEKYRLSPTLSSTKGHLLIHSRPRSSSVKRKRVSHGSHSPPKEKCKRKRSTRRSIMPRLQLCRSEDRLQHVAGPALEALSCGESSYDDYFSPDNLKERYSENLPPESQLPSSPAQLSCRSLSKKERTSIFEMSDFSCVGKKTRTVDITNFTAKTISSPRKTGNGEGRATSSCVTSAPEEALRCCRQAGKEDACPEGNGFSYTIEDPALPKGHDDDLTPLEGSLEEMKEAVGLKSTQNKGTTSKISNSSEGEAQSEHEPCFIVDCNMETSTEEKENLPGGYSGSVKNRPTRHDVLDDSCDGFKDLIKPHEELKKSGRGKKPTRTLVMTSMPSEKQNVVIQVVDKLKGFSIAPDVCETTTHVLSGKPLRTLNVLLGIARGCWVLSYDWVLWSLELGHWISEEPFELSHHFPAAPLCRSECHLSAGPYRGTLFADQPAMFVSPASSPPVAKLCELVHLCGGRVSQVPRQASIVIGPYSGKKKATVKYLSEKWVLDSITQHKVCAPENYLLSQ
B4: Telomeric repeat-binding factor 2 (Homo sapiens), Q15554 (parent)
chain: MAAGAGTAGPASGPGVVRDPAASQPRKRPGREGGEGARRSDTMAGGGGSSDGSGRAAGRRASRSSGRARRGRHEPGLGGPAERGAGEARLEEAVNRWVLKFYFHEALRAFRGSRYGDFRQIRDIMQALLVRPLGKEHTVSRLLRVMQCLSRIEEGENLDCSFDMEAELTPLESAINVLEMIKTEFTLTEAVVESSRKLVKEAAVIICIKNKEFEKASKILKKHMSKDPTTQKLRNDLLNIIREKNLAHPVIQNFSYETFQQKMLRFLESHLDDAEPYLLTMAKKALKSESAASSTGKEDKQPAPGPVEKPPREPARQLRNPPTTIGMMTLKAAFKTLSGAQDSEAAFAKLDQKDLVLPTQALPASPALKNKRPRKDENESSAPADGEGGSELQPKNKRMTISRLVLEEDSQSTEPSAGLNSSQEAASAPPSKPTVLNQPLPGEKNPKVPKGKWNSSNGVEEKETWVEEDELFQVQAAPDEDSTTNITKKQKWTVEESEWVKAGVQKYGEGNWAAISKNYPFVNRTAVMIKDRWRTMKRLGMN
partner: B1 chain

Variants of: B1
Conditions: with terf2_human TERF2, Q15554

effect of a mutation on the interaction | Variant
disrupting interaction | Y236A;L238A

Variants of: B2
Conditions: with terf2_human TERF2, Q15554

effect of a mutation on the interaction | Variant
decreasing interaction | F258A;L260A

Variants of: B3
Conditions: with terf2_human TERF2, Q15554

effect of a mutation on the interaction | Variant
disrupting interaction | Y330A;L332A

Variants of: B4
Conditions: with pp1ra_mouse Ppp1r10, Q80W00

effect of a mutation on the interaction | Variant
disrupting interaction strength | F162A
